Measured values from paper PMC11461821, “Structure of a Rhs effector clade domain provides mechanistic insights into type VI secretion system toxin delivery” (Nature Communications, 2024).

T1: Tse15 central Rhs domain (residues 335-1395) (Acinetobacter baumannii (strain …, UniProt A0A5K6CSR3 335-1395))
T1 construct: Tse15, A. baumannii AB307-0294, central Rhs domain, residues 335-1395; also called Rhs cage; β-cocoon
T1 sequence: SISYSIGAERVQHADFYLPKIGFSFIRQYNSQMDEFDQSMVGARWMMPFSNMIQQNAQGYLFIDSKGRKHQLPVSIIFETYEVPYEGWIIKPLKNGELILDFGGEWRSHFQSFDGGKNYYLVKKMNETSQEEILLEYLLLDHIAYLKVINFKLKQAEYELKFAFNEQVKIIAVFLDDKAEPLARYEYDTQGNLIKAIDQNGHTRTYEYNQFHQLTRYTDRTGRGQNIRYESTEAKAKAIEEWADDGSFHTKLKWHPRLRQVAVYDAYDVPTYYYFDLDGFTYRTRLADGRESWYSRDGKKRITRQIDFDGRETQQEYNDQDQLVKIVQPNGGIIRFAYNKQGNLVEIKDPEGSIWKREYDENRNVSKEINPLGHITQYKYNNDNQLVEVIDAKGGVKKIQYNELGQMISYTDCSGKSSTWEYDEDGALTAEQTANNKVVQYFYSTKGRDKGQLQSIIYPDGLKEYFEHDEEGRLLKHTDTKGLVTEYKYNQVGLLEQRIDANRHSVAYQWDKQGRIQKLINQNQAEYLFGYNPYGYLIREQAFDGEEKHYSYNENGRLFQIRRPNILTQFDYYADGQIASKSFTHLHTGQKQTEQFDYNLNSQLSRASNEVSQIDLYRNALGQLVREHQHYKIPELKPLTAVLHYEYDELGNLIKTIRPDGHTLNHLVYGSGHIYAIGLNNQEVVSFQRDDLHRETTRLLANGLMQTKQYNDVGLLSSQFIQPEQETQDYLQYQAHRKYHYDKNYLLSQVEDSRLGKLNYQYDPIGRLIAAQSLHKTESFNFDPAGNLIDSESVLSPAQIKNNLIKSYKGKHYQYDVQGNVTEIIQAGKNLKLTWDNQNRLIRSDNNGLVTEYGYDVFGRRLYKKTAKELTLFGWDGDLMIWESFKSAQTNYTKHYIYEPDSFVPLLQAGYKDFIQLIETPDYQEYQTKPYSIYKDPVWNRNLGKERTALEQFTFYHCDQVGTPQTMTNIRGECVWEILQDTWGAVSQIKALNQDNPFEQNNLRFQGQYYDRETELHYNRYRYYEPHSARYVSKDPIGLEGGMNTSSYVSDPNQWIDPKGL

B1: Tse15 N-terminal clade domain (residues 1-334) (domain or fragment)
chain: MAKENTQQKEIKRQPAVELAVFNLNSVTDVADLQMIASQVQLYLQVCGNTTLEQIKSKANITTVANIFALTGSVLDLMLYATDKKTGDAAVQRGALLAANLIGLFSEPNNEAHARMALRPMFGLMAECLYRENGKIKETDIKRLGLHLNAMIAGDLENFLKETQAKLSSLLISATTLGVTILQSMATPATGINAGITTAAGASAEKRDPKLKFTNWAVPLIDLLGKPSQANLTPKIQPNITSRLQQEATQAIAALSQTLQQQANAGQKYTLAWLLQETLKAIQALENKGNASVPINQTGEYERHTKGDTLEFVSLQADALNAPPCEGADSQSGK
notes: Tse15, A. baumannii AB307-0294, N-terminal clade domain, residues 1-334; Residues 14-333 are modelled in the structure; also called N-terminal clade-specific domain; not shown: StrepTag-II, N-terminal, kept

Legend:
[1] = target: T1, Tse15 central Rhs domain (residues …); assay: pull-down + SEC; nickel affinity (HisTrap HP) from E. coli lysate by the His tag that only the CTD carries, then analytical size-exclusion (Superdex200 10/300 GL Increase, 50 mM Hepes pH 8.0, 0.3 M NaCl); fragments identified by SDS-PAGE, Western blot, peptide fingerprinting and N-terminal sequencing; settings: partners not purified
[2] = target: B1; assay: as above; settings: partners not purified
[3] = target: T1, Tse15 central Rhs domain (residues …); assay: cryo-EM structure; single particle cryo-EM of purified protein, 3 mg/mL, UltrAuFoil grids; Tse15 at 200 kV (Talos Arctica), Tse15NN at 300 kV (Titan Krios); settings: both partners purified

| Binder | binding result [1] | binding result [2] | binding result [3] |
| --- | --- | --- | --- |
| Tse15 toxic C-terminal domain (residues 1396-1590) (domain or fragment, Tse15, A. baumannii AB307-0294, toxic CTD, residues 1396-1590; also called CTD; toxin domain; not shown: His6, C-terminal, kept) NSFNYGEMFGIPASAQSGLAYQGQRNYECYAETGELCKIKVPPLFDYVACSGGGLGIGVGFVKNQWTGEYYISGSKDSLLIPVAKSVAQNKQFSAKDLAGASCVGGNIHNIPSYTKTTMTMGEITNEFVSGASVTVGGGAYGAVANVVVPLVSKSSPVKGTWASELGVGTPGFNVGVSGTVSVDTILDAVKPSKK | binds | binds |  |
| B1 |  |  | binds |
